Laboratory results taken from US20210315969A1, “GLYCOPROTEINS HAVING LIPID MOBILIZING PROPERTIES AND THERAPEUTIC USES THEREOF” (Aston University, priority 2008, published 2021).

How the values were obtained:
[1] = tested on: adipocytes; assay: Expression of phospho HSL / HSL in adipocytes incubated 3 h with ZAG or isoprenaline; type: cell-based, mice; details: 3 h; isoprenaline 10 μM or ZAG 0.46 μM
[2] = tested on: C2Cl2 myotubes; assay: ROS formation and PKR/eIF2α phosphorylation in myotubes treated with glucose; type: cell-based, murine
From the text: FIG. 21 is a graphical diagram showing ROS activity in C2Cl2 myotubes treated with various concentrations of glucose with and without ZAG. Statistically significant c, P<0.001 from control f, P<0.001 from glucose alone.
FIG. 22A is a pictorial diagram of a Western blot showing PKR in C2Cl2 myotubes treated with glucose with and without ZAG. Statistically significant c, P<0.001 from control f, P<0.001 from glucose alone.
FIG. 22B is a pictorial diagram of a Western blot showing elF2a in C2Cl2 myotubes treated with glucose with and without ZAG. Statistically significant c, P<0.001 from control f, P<0.001 from glucose alone.
It has been shown that formation of reactive oxygen species (ROS) is important in protein degradation induced by high glucose load. […] High glucose also induces activation (phosphoiylation) of PKR (FIG. 22A) and the subsequent phosphorylation of elf2α (FIG. 22B) as is seen in skeletal muscle of ob/ob mice, which was also attenuated by ZAG.

[3] = Glucose and triolein oxidation, tissue glucose utilization and BAT oxygen uptake in mice treated with ZAG; type: in vivo
From the text: FIG. 12E is a graphical diagraph showing tissue Rg in ob/ob mice administered ZAG, c, p<0.001 from PBS.
FIG. 24 is a graphical diagram showing the oxidation of D-[U-^14C glucose] to ^14CO2 in ob/ob mice.
FIG. 25 is a graphical diagram showing production of ^14CO^2 from [^14C carboxy] triolein in ob/ob mice.

[4] = tested on: epididymal adipocytes, gastrocnemius muscle and BAT; assay: Glucose uptake into epididymal adipocytes, gastrocnemius muscle and BAT of rats treated with ZAG; type: in vivo, Wistar rats
Protocol: FIG. 12D is a graphical diagram showing glucose uptake into gastrocnemius muscle and BAT of male Wistar rats after 10 days treatment with either ZAG or PBS. in the absence or presence of insulin (60 μU/ml). Differences between ZAG and PBS treated animals are shown as a, p<0.05, b, p<0.01 or c, p<0.001, while differences in the presence of insulin are shown as or f, p<0.001.
(§1) Glucose (intake into Atlipocpyes Isolated adipocytes (5×10^4) were washed twice in 1 ml Krebs-Ringer bicarbonate buffer, pH 7.2 (KRBS) and further incubated for 10 min at room temperature in 0.5 ml KRBS containing 18.5MBq […]-^14CI deoxy-D-glucose and non-radioactive 2-deoxy-D-glucose to a final concentration of 0.1 mM. Uptake was terminated by the addition of 1 ml ice-cold glucose-free KRBS, and the cells were washed three times with 1 ml KRBS, lysed by addition of 0.5 ml 1 M NaOH and left for at least 1 h at room temperature before the radioactivity was determined by liquid scintillation counting.
(§2) Glucose Uptake into Gostrocneinius Muscle—Gastrocnemius muscles were incubated in Krebs-Henseleit bicarbonate butler for 45 min at 37° C. and then incubated for a further 10 min in 5 ml Krebs-Henseleit butler containing 185M Bq 2-[1-^14C]deoxy-D-glucose and non-radioactive 2-deoxy-D-glucose to a final concentration of 0.1 mM. The muscles were then removed and washed in 0.9% NaCl for 5 min followed by dissolution in 0.5 ml 1M NaOH and the radioactivity was determined by liquid scintillation counting.

[5] = tested on: adipocytes and gastrocnemius muscle; assay: Glucose uptake into adipocytes and gastrocnemius muscle of ob/ob mice treated with ZAG; type: in vivo; details: presence of low (1 nM) insulin
Protocol: as §1, §2

[6] = tested on: proteasome 'chymotrypsin-like' activity, caspase-3 and caspase-8; assay: Proteasome 'chymotrypsin-like' and caspase activity in gastrocnemius muscle; type: in vivo; details: ob/ob mice treated 5 days
Protocol: Gastrocnemius muscle was homogenised in 20 mM Tris, pH7.5, 2 mM ATP, 5 mM MgCl2 and 50 mM DTT at 4° C., sonicated and centrifuged at 18,000 g for 10 min at 4° C. to pellet insoluble material, and the resulting supernatant was used to measure ‘chymotrypsin-like’ enzyme activity in the presence or absence of the proteasome inhibitor lactacystin (10 μM). Only lactacystin suppressible activity was considered as true proteasome activity. The activity of caspase-3 was determined by the release of AMC from AcAsp.Gly.Val.Asp.AMC (SEQ ID NO: 3), and the activity of caspase-8 was determined by the release of 7-amino-4-trifluromethylcoumarin (AFC) from the specific substrate Z-Ile Glu Phe Thr Asp-AFC (SEQ ID NO: 4), using the supernatant from above (50 ug protein), and either the caspase-3 or −8 substrate (10 μM) for ih 37° C. in the presence or absence of the caspase-3 (AcAsp Glu Val Asp-CHO) (SEQ ID NO: 5) or caspase-8 (Ile Glu Phe Thr Asp-CHO) (SEQ ID NO: 6) inhibitors (100 μM). The increase in fluorescence due to […], while the increase in fluorescence due to AFC was measured with an excitation wavelength of 400 nm and an emission wavelength of 505 nm. The difference in values in the absence and presence of the caspase inhibitors was a measure of activity.

B1: Zinc-α2-glycoprotein (protein, listed as Homo sapiens)
chain: QENQDGRYSLTYIYTGLSKHVEDVPAFQALGSLNDLQFFRYNSKDRKSQPMGLWRQVEGMEDWKEDSQLQKAREDMETLKDIVEYYNDSNGSHVLQGRFGCEIENNRSSGAFWKYYYDGKDYIEFNKEIPAWVPFDPAAQITKQKWEAEPVYVQRAKAYLEEECPATLRKYLKYSKNILDRQDPPSVVVTSHQAPGEKKKLKCLAYDFYPGKIDVHWTRAGQVQEPELRGDVLHNGNGTYQSWVVVAVPPQDTAPYSCHVQHSSLAQPLVVPWEAS
notes: recombinant human Zinc-α2-glycoprotein, lipid mobilizing factor, expressed in HEK293F cells
**Q.** Which “expression of phospho HSL in adipocytes” value [1] does the source give for B1 here?
**A.** Its value is “increased expression of phospho HISL”.

**Q.** And the “glucose induced phosphorylation of PKR and eIF2α” value [2]?
**A.** The value was “attenuated”.

**Q.** What about the “increase in ROS produced by glucose” value [2] of the same molecule?
**A.** Its value is “completely attenuates”.

**Q.** And the “glucose utilization/oxidation by brain, heart, BAT and gastrocnemius muscle” value [3]?
**A.** The value was “increased glucose utilizationloxidation”.

**Q.** What about the “production of 14CO2 from D-[U-14C] glucose and [14C carboxy] triolein” value [3] of the same molecule?
**A.** The value was “increased production”.

**Q.** What about the “glucose uptake into gastrocnemius muscle and BAT” value ([4]; absence of insulin, vs PBS) of the same molecule?
**A.** Its value is “small, non-significant increase”.

**Q.** And the “glucose uptake into adipocytes, ZAG versus PBS treated animals” value ([4]; presence of insulin (60 μU/ml))?
**A.** Its value is “no significant difference”.

**Q.** What about the “glucose uptake into gastrocnemius muscle and BAT” value ([4]; presence of insulin (60 μU/ml)) of the same molecule?
**A.** Its value is “significant increase in uptake”.

**Q.** What about the “glucose uptake into epididymal and visceral adipocytes” value [5] of the same molecule?
**A.** Its value is “also increased glucose uptake”.

**Q.** And the “caspases-3 and -8” value [6]?
**A.** The value was “attenuated”.
